Values belong to the binder of their own block, whether it stands above or below them.
Target: T1, HLA-A2 on the cell surface (HLA-A2 transfected T2 cell line; SNB19 glioma cells) (human)
T1 construct: whole, on cells; Class I MHC on cells; also called HLA-A*0201
Test: T2 cell HLA-A2 stabilisation, flow cytometry, peptide 1 nM overnight
Protocol: The binding capability of these modified peptides was assessed using an HLA-A2 transfected T2 cell line. Aliquots of T2 cells were incubated with modified peptides or IL-13Rα2₃₄₅₋₃₅₃ at 1 nM overnight, and then examined for the surface expression levels of HLA-A2 on T2 cells by flow cytometry. Since stable binding of HLA-A2 with peptide epitopes further stabilizes the surface expression of HLA-A2 (Francini et al., 2002; Alves et al., 2003), quantitative expression levels of HLA-A2, which is indicated by Mean Fluorescence Intensity (MFI) in Table 1, correlate with the binding affinity of the peptide-epitopes that are co-incubated with the T2 cells.

Binding Index (MFI): 237 MFI
B1: Native IL-13Rα2345-353 peptide (peptide)
peptide: WLPFGFILI
notes: Synthetic peptide incubated with T2 cells at 1 nM overnight; also called IL-13Rα345-353; wild type IL-13Rα2345-353

Binding Index (MFI): 376 MFI
B2: IL-13Rα2-V9 peptide (I replaced with V at P9) (peptide)
peptide: WLPFGFILV
notes: Synthetic modified peptide; also called IL-13Rα2345-9V

Source: patent US20160114017A1 (UNIVERSITY OF PITTSBURGH OF THE COMMONWEALTH SYSTEM OF …, published 2016)
